Assay results published in patent US20220332804A1 (CSL INNOVATION, published 2022).

Legend:
Assay in all cases: SPR, mAb captured, C2 mutant analyte;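 further: Anti-C2 mAbs captured on goat anti-human IgG Biacore CM5 chips, alanine or serine C2 surface mutants flowed over at 37 °C, double-referenced sensorgrams fitted to a 1:1 binding model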
human C2 E686A = target: T1, human C2 E686A (human, UniProt P06681 21-752)
T1 sequence: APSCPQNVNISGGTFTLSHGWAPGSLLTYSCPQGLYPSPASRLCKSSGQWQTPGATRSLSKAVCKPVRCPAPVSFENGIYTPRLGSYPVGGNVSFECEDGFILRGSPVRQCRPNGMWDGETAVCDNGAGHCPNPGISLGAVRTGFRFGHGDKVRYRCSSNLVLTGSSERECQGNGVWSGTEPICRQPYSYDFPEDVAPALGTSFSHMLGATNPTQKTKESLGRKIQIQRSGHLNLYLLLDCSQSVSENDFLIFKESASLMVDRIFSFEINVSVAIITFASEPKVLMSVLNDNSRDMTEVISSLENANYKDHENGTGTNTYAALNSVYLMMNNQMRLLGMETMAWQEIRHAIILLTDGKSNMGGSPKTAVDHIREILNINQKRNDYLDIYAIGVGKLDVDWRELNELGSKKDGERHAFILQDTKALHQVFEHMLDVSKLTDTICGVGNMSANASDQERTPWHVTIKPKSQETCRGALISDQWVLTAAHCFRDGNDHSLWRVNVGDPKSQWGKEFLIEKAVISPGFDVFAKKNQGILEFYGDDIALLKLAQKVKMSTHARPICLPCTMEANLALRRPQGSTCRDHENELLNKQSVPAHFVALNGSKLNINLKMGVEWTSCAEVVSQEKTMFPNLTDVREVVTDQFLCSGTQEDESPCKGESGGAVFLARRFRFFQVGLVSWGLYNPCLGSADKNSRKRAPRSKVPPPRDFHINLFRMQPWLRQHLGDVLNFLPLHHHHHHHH

human C2 K415A = target: T2, human C2 K415A (human, UniProt P06681 21-752)
T2 sequence: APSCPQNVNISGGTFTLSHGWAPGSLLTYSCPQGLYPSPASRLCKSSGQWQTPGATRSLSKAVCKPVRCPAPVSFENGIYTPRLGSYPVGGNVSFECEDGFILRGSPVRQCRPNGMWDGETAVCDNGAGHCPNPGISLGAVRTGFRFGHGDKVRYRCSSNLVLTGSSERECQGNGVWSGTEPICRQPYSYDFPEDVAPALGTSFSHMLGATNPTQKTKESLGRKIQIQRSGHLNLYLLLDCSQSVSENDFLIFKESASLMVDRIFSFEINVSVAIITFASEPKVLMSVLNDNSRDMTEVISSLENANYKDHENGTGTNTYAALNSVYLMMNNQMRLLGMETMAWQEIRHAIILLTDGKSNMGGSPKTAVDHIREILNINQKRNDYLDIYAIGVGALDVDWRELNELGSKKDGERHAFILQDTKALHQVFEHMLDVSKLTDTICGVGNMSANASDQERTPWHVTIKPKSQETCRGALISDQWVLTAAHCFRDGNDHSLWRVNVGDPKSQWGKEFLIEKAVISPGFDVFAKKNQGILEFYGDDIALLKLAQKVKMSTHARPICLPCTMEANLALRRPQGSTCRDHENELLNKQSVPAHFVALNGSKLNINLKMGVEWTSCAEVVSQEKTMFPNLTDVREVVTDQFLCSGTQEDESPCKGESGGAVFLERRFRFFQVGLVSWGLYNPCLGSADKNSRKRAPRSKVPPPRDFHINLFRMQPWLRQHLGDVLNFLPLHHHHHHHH

human C2 L439A = target: T3, human C2 L439A (human, UniProt P06681 21-752)
T3 sequence: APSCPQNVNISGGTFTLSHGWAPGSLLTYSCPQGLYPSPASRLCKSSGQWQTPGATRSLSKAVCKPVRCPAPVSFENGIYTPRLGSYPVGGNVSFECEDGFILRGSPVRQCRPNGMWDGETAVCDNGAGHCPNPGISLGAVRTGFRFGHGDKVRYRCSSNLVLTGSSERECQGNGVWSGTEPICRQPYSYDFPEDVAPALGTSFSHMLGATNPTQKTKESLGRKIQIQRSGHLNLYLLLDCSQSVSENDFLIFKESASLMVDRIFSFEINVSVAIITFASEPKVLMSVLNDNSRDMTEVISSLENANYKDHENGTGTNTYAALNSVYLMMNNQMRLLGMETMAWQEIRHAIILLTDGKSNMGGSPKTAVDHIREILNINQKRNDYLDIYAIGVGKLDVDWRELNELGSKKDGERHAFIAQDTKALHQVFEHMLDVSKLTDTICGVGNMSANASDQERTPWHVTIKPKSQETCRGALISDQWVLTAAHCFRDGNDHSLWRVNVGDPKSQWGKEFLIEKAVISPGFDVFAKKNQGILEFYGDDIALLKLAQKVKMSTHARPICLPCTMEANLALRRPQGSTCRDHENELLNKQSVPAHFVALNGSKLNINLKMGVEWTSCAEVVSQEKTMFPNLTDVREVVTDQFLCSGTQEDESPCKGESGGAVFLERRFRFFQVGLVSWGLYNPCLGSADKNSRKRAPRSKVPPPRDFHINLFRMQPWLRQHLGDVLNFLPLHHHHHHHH

human C2 L620A = target: T4, human C2 L620A (human, UniProt P06681 21-752)
T4 sequence: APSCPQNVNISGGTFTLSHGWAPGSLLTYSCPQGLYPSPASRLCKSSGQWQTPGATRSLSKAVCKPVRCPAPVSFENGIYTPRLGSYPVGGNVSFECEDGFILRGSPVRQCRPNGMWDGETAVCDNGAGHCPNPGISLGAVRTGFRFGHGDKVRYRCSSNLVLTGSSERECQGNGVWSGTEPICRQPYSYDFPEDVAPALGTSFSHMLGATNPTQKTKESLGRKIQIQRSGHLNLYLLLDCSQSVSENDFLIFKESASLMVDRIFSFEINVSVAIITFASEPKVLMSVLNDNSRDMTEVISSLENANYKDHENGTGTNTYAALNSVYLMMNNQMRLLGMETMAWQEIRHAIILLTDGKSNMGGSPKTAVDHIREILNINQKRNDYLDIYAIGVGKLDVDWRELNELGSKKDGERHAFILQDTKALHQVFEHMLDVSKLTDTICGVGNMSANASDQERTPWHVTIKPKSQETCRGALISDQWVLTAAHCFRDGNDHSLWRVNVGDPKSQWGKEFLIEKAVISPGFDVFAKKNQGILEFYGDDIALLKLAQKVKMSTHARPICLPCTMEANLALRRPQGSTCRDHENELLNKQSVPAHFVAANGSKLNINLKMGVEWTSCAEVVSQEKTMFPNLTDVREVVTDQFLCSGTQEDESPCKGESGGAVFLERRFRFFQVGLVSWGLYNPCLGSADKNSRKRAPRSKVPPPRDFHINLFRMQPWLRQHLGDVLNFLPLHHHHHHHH

B1: RF16-214 (antibody, V domains shown)
VH: EVQLLESGGGLVQPGGSLRLSCAASGFTFSWYQMMWVRQAPGKGLEWVSRIYPSGGGTAYADSVKGRFTISRDNSKNTLYLQMNSLRAEDTAVYYCARDAGYGDNWGQGTLVTVSS
VL: QSALTQPPSVSVSPGQTASITCSGDKLGEKYASWYQQKAGQSPVMVIYQDRKRPSGIPERFSGSNSGNTATLTISGTQAMDEADYYCQAWDTRAVVFGGGTKLTVLG
Question: For B1, which Kd (human C2 E686A) is on record?
Answer: Its Kd is 139 nM.

Question: And the Kd (human C2 K415A)?
Answer: Its Kd is 46 nM.

Question: And the Kd (human C2 L439A)?
Answer: Its Kd is 1320 nM.

Question: And the Kd (human C2 L620A)?
Answer: Its Kd is 30.8 nM.
